Data published in patent US8673848 (Novartis, dated 2014).
Bridges are numbered along the chain shown (N, C = ends). [ ]: non-standard residue; d: D form. pGlu = O=C1CC[C@@H](C(=O)O)N1; Nle = CCCC[C@H](N)C(=O)O; Aib = CC(C)(N)C(=O)O

T1: human APJ receptor (hAPJ) (human, UniProt P35414 1-380)
T1 sequence (looked up): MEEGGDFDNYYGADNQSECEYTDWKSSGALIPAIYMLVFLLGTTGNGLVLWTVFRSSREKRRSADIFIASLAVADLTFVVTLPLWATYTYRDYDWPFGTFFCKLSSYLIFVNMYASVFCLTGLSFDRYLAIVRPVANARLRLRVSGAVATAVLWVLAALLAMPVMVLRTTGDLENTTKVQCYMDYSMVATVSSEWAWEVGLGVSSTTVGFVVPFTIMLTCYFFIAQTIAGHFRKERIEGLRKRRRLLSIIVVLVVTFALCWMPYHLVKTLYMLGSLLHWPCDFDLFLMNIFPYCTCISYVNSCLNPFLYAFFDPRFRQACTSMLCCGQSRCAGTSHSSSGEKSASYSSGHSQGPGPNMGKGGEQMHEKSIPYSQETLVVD

B1: Example 9: pE-R-P-R-L-C-Aib-K-G-P-Nle-C-F-OH (peptide)
peptide: [pGlu]RPRLC[Aib]KGP[Nle]CF-OH
modifications: disulfide 6-12
SMILES: CCCC[C@@H]1NC(=O)[C@@H]2CCCN2C(=O)CNC(=O)[C@H](CCCCN)NC(=O)C(C)(C)NC(=O)[C@@H](NC(=O)[C@H](CC(C)C)NC(=O)[C@H](CCCNC(=N)N)NC(=O)[C@@H]2CCCN2C(=O)[C@H](CCCNC(=N)N)NC(=O)[C@@H]2CCC(=O)N2)CSSC[C@@H](C(=O)N[C@@H](Cc2ccccc2)C(=O)O)NC1=O

The binders below were run against T1, human APJ receptor (hAPJ) (assay: cell-based or functional assay).

Binder	hAPJ Ca2+ Flux EC50
B1	2.16 nM
cyclo(QRPRLCFKGP[Nle]CFGG) (disulfide 6-12) [Example 7: Q-R-P-R-L-C-F-K-G-P-Nle-C-F-G-G]	90.8 nM
[pGlu]RPRLCHKGP[Nle]CF-OH (disulfide 6-12) [Example 8: pE-R-P-R-L-C-H-K-G-P-Nle-C-F-OH]	1.04 nM
